From PMC13577073, “Cryo-EM structure of the glycosylated protein CgeA in the crust of Bacillus subtilis endospores” (The Journal of Microbiology, 2025)

Key:
[1] = biological target: the molecule itself; assay: SEC-MALS; Superdex 200 Increase 10/300 GL; 20 mM Tris-HCl (pH 8.0), 150 mM NaCl; DAWN HELIOS II
[2] = biological target: the molecule itself; assay: SEC; wild type and A42C/D97C mutant compared; Superdex 200 column calibrated with reference proteins

| Protein | stoichiometry N [1] | stoichiometry N [2] |
| --- | --- | --- |
| CgeA protein from Bacillus subtilis, wild type (natural protein, B. subtilis, UniProt P42089 1-133, looked up, CgeA, spore crust protein of B. subtilis; synthesized cgeA gene subcloned into NcoI/XhoI of pProEx-Hta; also called CgeA (WT); wild-type CgeA; source: E. coli BL21 (DE3), purified (Ni-NTA, TEV cleavage, HiTrap Q, Superdex 200); not shown: His6, N-terminal, cleaved) MSSENAQLKKDLIKAVLSPLFPTATEGGENMDSNLKALLDAAIDQKVDESETVTAESILDPSLPARWIFARITPGTTISIVTDSGDMIGPVVFVAFDQVHGIVFVTQESSVTPAGQATTLIDVDKVESVTFFS | 6 | – |
| CgeA A42C/D97C variant (natural protein, B. subtilis, UniProt P42089 1-133, looked up, CgeA of B. subtilis with two cysteine mutations, made from pProEx-Hta-CgeA (WT) by QuikChange; residues 62-109 and 115-133 are modelled in the cryo-EM structure; The cysteines were designed to form a disulfide bond, which could not be seen unambiguously in the map; also called CgeA A42C/D97C mutant; CgeA mutant; source: E. coli BL21 (DE3), purified (Ni-NTA, TEV cleavage, HiTrap Q, Superdex 200); …) MSSENAQLKKDLIKAVLSPLFPTATEGGENMDSNLKALLDACIDQKVDESETVTAESILDPSLPARWIFARITPGTTISIVTDSGDMIGPVVFVAFCQVHGIVFVTQESSVTPAGQATTLIDVDKVESVTFFS | – | 6 |
